# B1: ASIC1a-ΔCCt (H8-hASIC1a-C466A/C471A/C497A/C528Stop) [human] / itself (parent)
# chain: MELKAEEEEVGGVQPVSIQAFASSSTLHGLAHIFSYERLSLKRALWALCFLGSLAVLLCVCTERVQYYFHYHHVTKLDEVAASQLTFPAVTLCNLNEFRFSQVSKNDLYHAGELLALLNNRYEIPDTQMADEKQLEILQDKANFRSFKPKPFNMREFYDRAGHDIRDMLLSCHFRGEVCSAEDFKVVFTRYGKCYTFNSGRDGRPRLKTMKGGTGNGLEIMLDIQQDEYLPVWGETDETSFEAGIKVQIHSQDEPPFIDQLGFGVAPGFQTFVACQEQRLIYLPPPWGTCKAVTMDSDLDFFDSYSITACRIDCETRYLVENCNCRMVHMPGDAPYCTPEQYKECADPALDFLVEKDQEYCVCEMPCNLTRYGKELSMVKIPSKASAKYLAKKFNKSEQYIGENILVLDIFFEVLNYETIEQKKAYEIAGLLGDIGGQMGLFIGASILTVLELFDYAYEVIKHKLARRGKAQKEAKRSSADKGVALSLDDVKRHNPAESLRGHPAGMTYAANILPHHPARGTFEDFT
# Variants of: B1
# Assay: BMOE crosslinking at the cell surface, SDS-PAGE under reducing conditions, anti-His-tag western blotting, band densitometry
# Details: with itself; mean ±SEM, n = 4; read off a plot
row,relative band intensity (densitometry),Variant
1,0.22,MELKAEEEEVGGVQPVSIQAFASSSTLHGLAHIFSYERLSLKRALWALCFLGSLAVLLVVCTERVQYYFHYHHVTKLDEVAASQLTFPAVTLCNLNEFRFSQVSKNDLYHAGELLALLNNRYEIPDTQMADEKQLEILQDKANFRSFKPKPFNMREFYDRAGHDIRDMLLSCHFRGEVCSAEDFKVVFTRYGKCYTFNSGRDGRPRLKTMKGGTGNGLEIMLDIQQDEYLPVWGETDETSFEAGIKVQIHSQDEPPFIDQLGFGVAPGFQTFVACQEQRLIYLPPPWGTCKAVTMDSDLDFFDSYSITACRIDCETRYLVENCNCRMVHMPGDAPYCTPEQYKECADPALDFLVEKDQEYCVCEMPCNLTRYGKELSMVKIPSKASAKYLAKKFNKSEQYIGENILVLDIFFEVLNYETIEQKKAYEIAGLLCDIGGQMGLFIGASILTVLELFDYAYEVIKHKLARRGKAQKEAKRSSADKGVALSLDDVKRHNPAESLRGHPAGMTYAANILPHHPARGTFEDFT [chain 1 G433C C59V]
2,0.18,MELKAEEEEVGGVQPVSIQAFASSSTLHGLAHIFSYERLSLKRALWALCFLGSLAVLLVVSTERVQYYFHYHHVTKLDEVAASQLTFPAVTLCNLNEFRFSQVSKNDLYHAGELLALLNNRYEIPDTQMADEKQLEILQDKANFRSFKPKPFNMREFYDRAGHDIRDMLLSCHFRGEVCSAEDFKVVFTRYGKCYTFNSGRDGRPRLKTMKGGTGNGLEIMLDIQQDEYLPVWGETDETSFEAGIKVQIHSQDEPPFIDQLGFGVAPGFQTFVACQEQRLIYLPPPWGTCKAVTMDSDLDFFDSYSITACRIDCETRYLVENCNCRMVHMPGDAPYCTPEQYKECADPALDFLVEKDQEYCVCEMPCNLTRYGKELSMVKIPSKASAKYLAKKFNKSEQYIGENILVLDIFFEVLNYETIEQKKAYEIAGLLCDIGGQMGLFIGASILTVLELFDYAYEVIKHKLARRGKAQKEAKRSSADKGVALSLDDVKRHNPAESLRGHPAGMTYAANILPHHPARGTFEDFT [chain 1 G433C C59V C61S]

# Source: article PMC4529235
